Test results as given in publication doi:10.1101/304022 (bioRxiv, 2018).

Biological target: the molecule itself
Experiment: dynamic light scattering

Row | Protein | binding result
1 | STIM1 23-213 (luminal domain of human stromal interaction molecule-1), wild type, unmodified (1 mM DTT) (domain or fragment, UniProt Q13586-1 23-213, looked up) LSHSHSEKATGTSSGANSEESTAAEFCRIDKPLCHSEDEKLSFEAVRNIHKLMDDDANGDVDVEESDEFLREDLNYHDPTVKHSTFHGEDKLISVEDLWKAWKSSEVYNWTVDEVVQWLITYVELPQYEETFRKLQLSGHAMPRLAVTNTTMTGTVLKMTDRSHRQKLQLKALDTVLFGPPLLTRHNHLKD | binds
2 | Cys49Ser/Cys56Ser double mutant STIM1 23-213 (domain or fragment, human, UniProt Q13586-1 23-213, looked up) LSHSHSEKATGTSSGANSEESTAAEFSRIDKPLSHSEDEKLSFEAVRNIHKLMDDDANGDVDVEESDEFLREDLNYHDPTVKHSTFHGEDKLISVEDLWKAWKSSEVYNWTVDEVVQWLITYVELPQYEETFRKLQLSGHAMPRLAVTNTTMTGTVLKMTDRSHRQKLQLKALDTVLFGPPLLTRHNHLKD | binds
